Measurements: publication PMC5413351 (2017)
Where no end group is shown, it is not given here. fluorescein‑5‑maleimide = fluorescein-5-maleimide

T1: Vps4^101-437 L151D (S. cerevisiae, UniProt P52917 101-437, L151D)
T1 sequence: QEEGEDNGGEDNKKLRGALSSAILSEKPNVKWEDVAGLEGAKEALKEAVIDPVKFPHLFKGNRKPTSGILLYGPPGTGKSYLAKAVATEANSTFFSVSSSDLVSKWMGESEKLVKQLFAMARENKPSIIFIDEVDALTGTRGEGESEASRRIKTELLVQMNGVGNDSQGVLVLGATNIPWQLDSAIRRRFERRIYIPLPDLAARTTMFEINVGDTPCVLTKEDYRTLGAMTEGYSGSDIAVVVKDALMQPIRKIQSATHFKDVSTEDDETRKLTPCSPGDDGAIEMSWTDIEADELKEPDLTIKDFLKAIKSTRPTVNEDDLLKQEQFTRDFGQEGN


Legend:
Assay in all cases: FP
[1] = molecular target: Vps4^101-437-Hcp1 R325D (S. cerevisiae | Pseudomonas aeruginosa, UniProt P52917 101-437, R325D)
[2] = molecular target: Vps4^101-437-Hcp1 (S. cerevisiae | Pseudomonas aeruginosa, UniProt P52917 101-437)
[3] = molecular target: Vps4^101-437-Hcp1 K321A (S. cerevisiae | Pseudomonas aeruginosa, UniProt P52917 101-437, K321A)
[4] = molecular target: Vps4^101-437-Hcp1 E322A (S. cerevisiae | Pseudomonas aeruginosa, UniProt P52917 101-437, E322A)
[5] = molecular target: T1, Vps4^101-437 L151D

Binder	Kd [1] [nM]	Kd [2] [nM]	Kd [3] [nM]	Kd [4] [nM]	Kd [5] [nM]
fluorescently labeled Vta1^VSL S278C (domain or fragment, fluorescein-5-maleimide on the single cysteine (S278C)) MASNAARVVATAKDFDKVGLGIIGYYLQLYAVELILSEEDRSQEMTALATELLDTIEAFKKEIGGESEAEDSDKSLHVMNTLIHDQEKAKIYMLNFTMSLYNEKLKQLKDGPWDVMLKRSLWCCIDLFSCILHLWKENISETSTNSLQKRIKYCKIYLSKLAKGEIGSSDEKTLDYADFADDSEEIKDEDVDHQTSDLENNNNDKVEGLAPKDQTTSYEPVDEVPEFIDDADSVNEEEQTVDKNEDAITKDEQQVVKKEVDLTRPSAPSEPAAAEHKCYTKDELTKIMDRASKIEQIQKLAKYAISALNYEDLPTAKDELTKALDLLNSI	564	184	367	72	
fluorescently labeled Vta1^VSL S278C (domain or fragment) C(fluorescein‑5‑maleimide)YTKDELTKIMDRASKIEQIQKLAKYAISALNYEDLPTAKDELTKALDLLNSI					4400
